Key:
[1] = from reference (18); cited from earlier work
[2] = Ca2+ dependency of the initial velocity of hydrolysis of POPC vesicles; assay type: biochemical; conditions: POPC vesicles with 1-palmitoyl-2-[8,9-3H]palmitoyl-sn-glycero-3-phosphocholine
Method: (§1) FIG. 3 represents the enzymatic properties of hGXII. […] Additional assay details have been reported elsewhere (18).
(§2) Large unilamellar vesicles (0.1 μm) of POPC, POPG, and POPS (31) were used to measure the initial rates of hydrolysis by hGXII in Hank's balanced salt solution with 1.2 mM CaCl2 and 0.9 mM MgCl2 using the fatty acid binding protein assay (17). The pH-rate profile and Ca^2+ dependency for the action of hGXII on POPG and POPC vesicles, respectively, were obtained as described (17).

[3] = pH-rate profile of hydrolysis of POPG vesicles; assay type: biochemical
Method: as §1, §2

[4] = Initial rates of hydrolysis of large unilamellar vesicles, fatty acid binding protein assay; assay type: biochemical
Method: as §1, §2

[5] = sPLA2 activity assay using radiolabeled E. coli membranes; assay type: biochemical; conditions: recombinant protein from E. coli; also active on POPG, POPS and POPC vesicles
Description: (§3) A mammalian expression vector containing the full-length hGXII cDNA was first used to transiently transfected HEK293 cells. […] Mass spectrometry analysis gave an experimental mass of 18,702.6±0.5 Da, which agrees well with the mass of 18,702.1 Da calculated from the sequence of mature hGXII shown in FIG. 1A.
The decrease as the pH is lowered presumably reflects, in part, the protonation of the active site histidine. As for all mammalian sPLA2s examined so far, the enzymatic activity of hGXII on phosphatidylglycerol vesicles is highest (FIG. 3C), which probably reflects the tighter binding of hGXII to anionic vesicles (37). Although hGXII hydrolyzes POPC at only ˜7% of the rate of POPG, this difference is small compared to the greater than 10^5-fold preference of hGIIA for POPG versus POPC (18).

[6] = sPLA2 activity secreted into culture medium of transiently transfected HEK293 cells; assay type: cell-based; conditions: 1-5 days after transfection
Description: as §3

B1: hGIIA: human group IIA secreted phospholipase A2, used as literature comparator (protein, UniProt P14555 21-144, looked up)
Phospholipase A2, membrane …: NLVNFHRMIKLTTGKEAALSYGFYGCHCGVGGRGSPKDATDRCCVTHDCCYKRLEKRGCGTKFLSYKFSNSGSRITCAKQDSCRSQLCECDKAAATCFARNKTTYNKKYQYYSNKHCRGSTPRC
[1]
  preference for POPG versus POPC: greater than 10^5 fold

B2: hGXII: novel human secreted phospholipase A2 of group XII, mature protein of 167 amino acids (SEQ ID No 2), produced in E. coli (protein)
chain: MALLSRPALTLLLLLMAAVVRCQEQAQTTDWRATLKTIRNGVHKIDTYLNAALDLLGGEDGLCQYKCSDGSKPFPRYGYKPSPPNGCGSPLFGVHLNIGIPSLTKCCNQHDRCYETCGKSKNDCDEEFQYCLSKICRDVQKTLGLTQHVQACETTVELLFDSVIHLGCKPYLDSQRAACRCHYEEKTDL
[2]
  Kca (Ca2+ dependence of sPLA2 activity toward POPC vesicles): 30 ± 10 µM
[3]
  pH of maximal activity: ~8.0
[4]; POPS vesicles
  POPS as substrate: good substrate
[4]; compared to hGIB, hGIIA, hGV, hGX, comparable to mGIIE
  specific enzymatic activity compared to other mammalian sPLA2s: low
[4]; compared with POPC and POPS vesicles
  enzymatic activity on phosphatidylglycerol vesicles: highest
[4]; large unilamellar vesicles (0.1 μm), Hank's balanced salt solution, 1.2 mM CaCl2, 0.9 mM MgCl2
  rate of POPC hydrolysis as % of the rate of POPG: ~7%
[5]
  sPLA2 catalytic activity: catalytically active
[6]
  sPLA2 activity secreted into the culture medium versus cells transfected with vector lacking the insert: barely above

From patent US20020119139A1, “Cloning and recombinant expression of mammalian group XII secreted phospholipase A2” (priority 2000, published 2002)
